# Laboratory results as given in the supplement of paper PMC12042874.
# ± gives the uncertainty stated by the source.
# Experiment: amyloid nucleation score (Sup35N fusion, yeast selection) (log enrichment); library NNK1; higher = more nucleation; inactive = no reads after selection
# Outline: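 The nucleation score is a DiMSum log enrichment of output over input reads, centred on the mode score of non-aggregating sequences. Sequences under 100 input reads were excluded, and reads came from Illumina sequencing of plasmid inserts. Psi-negative yeast expressing Sup35N fused to peptides of 20 random codons were induced with 100 μM copper sulfate for 24 hours and grown 7 days at 30°C on medium lacking adenine and uracil. Random libraries had three technical output replicates.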
row,Substance,amyloid nucleation score
1,KDVFY,-0.294 ± 0.5
2,KDVVISVGGMSVVLFSSRPH,4.52 ± 0.091
3,KEDAIIWVYNKSVSMRIFVQ,-0.104 ± 0.46
4,KEHRPWGCW,inactive
5,KEKWRMQICAPGKS,-1.24 ± 0.81
6,KERIFPLTTEAMKLERKA,-0.341 ± 0.57
7,KFFCCN,7.776 ± 0.076
8,KFIVMIE,0.386 ± 0.22
9,KFIVWTFWSYLLTATRM,0.157 ± 0.79
10,KFLLLSCYIEWRLMSVLAKA,0.968 ± 0.69
11,KFNPLLITKFSAWECGLVVG,-1.55 ± 1.9
12,KFRRW,-0.832 ± 0.56
13,KFTVVVAVSCRRLPSNICRI,0.141 ± 0.53
14,KGDNIPLGAPSREMLTVYRA,-0.146 ± 0.5
15,KGELLGDWGAIYHWCF,inactive
16,KGKPYFAEMLHIMSFVWSSD,1.3 ± 0.6
17,KGKTVVSEDGEQCHLGCSRT,-0.079 ± 0.33
18,KGWKTVVHCRDYGQVNNFGS,2.22 ± 0.14
19,KGYSSTYGRPSKHYCC,inactive
20,KHCDYHRWVEITSKRLFIGG,0.134 ± 0.3
21,KHDIIESQPQVVHNNRCVWL,inactive
22,KHQSHFLVV,0.872 ± 0.45
23,KIALTLIRRLQFLNDSVKPQ,1.71 ± 0.17
24,KIATKGNIF,-0.951 ± 0.53
25,KIFDMRVESVYWVGRSPSKV,0.706 ± 0.17
26,KIIPRRRKSFMLNTFKYPHD,1.62 ± 0.52

row,Substance,amyloid nucleation score
1,KIPKSVYVLTSIEGSAFNIK,-0.234 ± 1.6
2,KISITSTIVFS,1.32 ± 0.33
3,KISYADF,0.646 ± 1.1
4,KITIGINS,0.4 ± 0.33
5,KIVRSRWFIICACVKLRTRL,0.427 ± 0.36
6,KKFVNFWVMSLYLNSDYSP,inactive
7,KKKRRLSSWYSHPVPSSGLL,0.488 ± 1
8,KKNIWPLYSLRVRLYELAIS,-0.965 ± 1.7
9,KKVINPYFFGCTGCNNTQRK,-0.149 ± 0.31
10,KLDMGVLPFANWSVDT,-0.032 ± 0.28
11,KLETYYGAFNFNWFLSLNGD,5.08 ± 0.061
12,KLGPVTYLYP,-0.03 ± 0.72
13,KLHDGFL,-0.96 ± 2.7
14,KLMLLLSNSMNQRSDYPRFQ,-0.327 ± 0.44
15,KLREFAVLTLESGSFSVYCW,-1.14 ± 1.2
16,KLRRDSFVFQVKFHLNKGML,-0.384 ± 0.46
17,KLRSGCLDYIVIDLWTF,-0.439 ± 0.39
18,KLTHVNDLLTMVVNVSRAQG,-0.004 ± 1.4
19,KLYGVSCAPLSEDHCLGKAA,-0.339 ± 0.48
20,KMECVVRVSGCRDKVDWTAG,2.53 ± 0.2
21,KMQPQMTCFS,-0.435 ± 0.53
22,KMRILWVV,0.945 ± 0.51
23,KMTCCSGSINDGYLYCVYNV,6.56 ± 0.071
24,KNALWVRTVKNMCVLWDTGF,-1.08 ± 1.4
25,KNAVSSGRSGKITRR,0.231 ± 1.4
26,KNAYHFRG,0.113 ± 0.97

row,Substance,amyloid nucleation score
1,KNFFPFAFVFL,7.083 ± 0.053
2,KNVMVFVQDWIVVSCMRVEK,2.39 ± 0.14
3,KNYDGCHMSYVGSRGWITSL,0.215 ± 1.4
4,KPGTNSYGCVYNHGFMGCTK,-0.245 ± 0.45
5,KPWLVHMHGSSYNGRADAEV,0.811 ± 0.61
6,KQTLLYHSSGSCCWELVSWW,4.39 ± 0.097
7,KQYPI,-1.33 ± 2.4
8,KRFLSYWRFSWGWYIAQACG,-0.68 ± 1.4
9,KRFSKDLLMAESDLCIGCMM,-0.817 ± 2.4
10,KRPSMM,-0.18 ± 0.3
11,KSDSVLAGY,5.039 ± 0.05
12,KSGSKCRLRGSDNSNRLSVM,-0.335 ± 1.5
13,KSMECSFAWLWDSREFIFCH,-1.67 ± 1.4
14,KSRGRKSSGDFPIRGD,4.84 ± 0.062
15,KSTPEYRSKDSMCELHKDMC,inactive
16,KSTRWQIRSDALDVSERCFS,1 ± 0.76
17,KSTTLLVGSRSCGAHLQRLH,0.462 ± 0.37
18,KSVVLHWYAYSMLYPLWNLV,0.511 ± 0.53
19,KTPLYLPYLYFSIRLMCYWY,-0.47 ± 0.21
20,KTSVL,-0.616 ± 0.39
21,KVHKLIDNYMLRSRWY,-0.139 ± 0.9
22,KVLELYRILYRREHNFWVEV,-0.317 ± 1.6
23,KVLMTAGFYVVLRALKHRTK,1.51 ± 0.34
24,KVNLTSCSY,-0.059 ± 0.42
25,KVNTLCEHSSIHRPVVGNGG,0.082 ± 0.77
26,KVRHNVVLG,-1.19 ± 0.66

row,Substance,amyloid nucleation score
1,KVRIQGPTNVCVVRTMCGWF,5.98 ± 0.056
2,KWDKVALYFDQVQITELCIY,4.21 ± 0.091
3,KWNCLVSCRLCELYLIPLI,3.58 ± 0.081
4,KWNFVHMDQKGKELNSLFSL,-0.649 ± 0.54
5,KYFIMCDIILCVVPVSYTGG,3.87 ± 0.074
6,KYFSSNSKYIYDQLIVPSRT,-0.42 ± 1.7
7,KYLFFMVFQWS,0.439 ± 0.84
8,KYTYGRHTQLVLDSIHSWLN,0.235 ± 0.75
9,LACTSASSVSRESFMYSQMS,2.78 ± 0.16
10,LAEWRLYLRRTVWYLRILIR,-0.066 ± 1
11,LAFNTIYWVIRIESFWLSAA,-0.189 ± 0.36
12,LAGQVVRRTKTLWHAPAHPY,0.374 ± 0.36
13,LALVDAHK,-1.02 ± 1
14,LAMPLFPLQDGSW,inactive
15,LARTMYCYIVSEKVLWSGVG,2.15 ± 0.1
16,LARYMIYWGLMSAGRHRRHY,-0.46 ± 0.43
17,LASFMQRRAYSDGHDMLVRM,inactive
18,LAVRESIVQDKTWQDYE,-0.102 ± 0.18
19,LAWWLCGNLVTWYIITDGQW,1.04 ± 0.55
20,LAYRR,0.274 ± 0.63
21,LCAISHIE,-0.502 ± 0.28
22,LCDGFILLSNVLLGPMIYDW,0.561 ± 0.27
23,LCDMAIDVFCLSCCK,6.652 ± 0.05
24,LCFCVKVS,inactive
25,LCIWYICRT,3.2 ± 0.16
26,LCLGLHSNLSLSMLRLLVLE,-0.482 ± 1.4

row,Substance,amyloid nucleation score
1,LCLLIDNTYIVDVFFYVLSQ,1.49 ± 0.32
2,LCLTKNMCTSIVRVRALVCR,-0.161 ± 0.26
3,LCNIITGVSSIGAYWSTKIL,1.22 ± 0.57
4,LCNVEDRPYKKFPTDVASK,-0.031 ± 0.31
5,LCPGFNWESFLVKMVLHFFR,-0.606 ± 0.75
6,LCSNYQCLTTVYQLVVVAEW,3.54 ± 0.13
7,LDDLPTILGVSEHSRSFVKV,-0.324 ± 0.61
8,LDEFSTSISITEWSSKL,-0.261 ± 0.3
9,LDGTLVLTYL,0.134 ± 0.42
10,LDHTTVWCWCGTGGLYRRCC,-0.29 ± 0.31
11,LDIINLGGRHFTRSPVLYRN,-0.297 ± 0.49
12,LDLAFSFLHSTNIWTTFGLC,-1.6 ± 1.4
13,LDLMVVCFKGIRGFEKMIGG,1.5 ± 0.31
14,LDQRKGPFSNSALRGHSWCN,-0.506 ± 0.44
15,LDSFTYKS,1.99 ± 0.49
16,LDVSTRQRLVGVD,-0.2 ± 0.61
17,LEKQMNASQFAPPRLLLRKL,0.498 ± 0.87
18,LELLSSWWYSSIYTGTDCVT,2.08 ± 0.25
19,LEVMRWYWESLLACISLCD,0.853 ± 0.74
20,LFCSLGSSPAYVNKWCVHLE,0.862 ± 0.45
21,LFCVSDSPCVCGRHSISYDW,-0.601 ± 0.9
22,LFFMVLFNKSTEFERLFHIV,-0.633 ± 0.56
23,LFGLNWYNNGGRKSGCSDWA,-0.503 ± 0.98
